Measured values from the DeepSol protein solubility set.

assay: soluble on expression in E. coli; label from the status in PepcDB or PDB records

| Sequence | soluble on expression in E. coli |
| --- | --- |
| MGSDKIHHHHHHSDSLQSAYDTDATYRDKAGKKESGYTATFTETCNSENDVQIIVDYTVEPNNKSDVEIFQDRMDIIKDNTNASDIYADGGYYGENVINKANSKGIEIQLHYTDMTGKTAPEGQLPAHHFVFNKDMEMVQCPGGQIPSSSKYNSKTKITTSHFPKEVCNNCPHRCNCPLKEQKRDMVVRISKKSILASQVRETVNDPHIKHENISKRAAIEGTNSAIKGCQGAKRLRVRGKIKCTLQIGFKVIGHNFKQIFRALTKQIKKPKIKTKGLLCPNPN | not soluble |
| MTAAPGTSMATPHVAGIAALLLQAHPSWTPDKVKTALIETADIVKPDEIADIAYGAGRVNAYKAINYDNYAKLVFTGYVANKGSQTHQFVISGASFVTATLYWDNANSDLDLYLYDPNGNQVDYSYTAYYGFEKVGYYNPTDGTWTIKVVSYSGSANYQVDVVSDGSLSQPGSSPSPQPEPTVDAKTFQGSVHLEHHHHHH | not soluble |
| MFDRYDAGEQAVLVHIYFSQDKDMEDLQEFESLVSSAGVEAMQVITGSRKAPHPKYFVGEGKAVEIAEAVKATGAAVVLFDHALSPAQERNLERLCECRVIDRTGLILDIFAQRARTHEGKLQVELAQLRHLATRLVRGWTHLERQKGGIGLRGPGETQLETDRRLLRNRIVQIQSRLEKVEKQREQGRQSRIKADVPTVSLVGYTNAGKSTLFNQITEARVYAADQLFATLDPTLRRIDVADVGETVLADTVGFIRHLPHDLVAAFKATLQETRQATLLLHVVDAADVRVQENIEAVNTVLEEIDAHEIPTLMVMNKIDMLDDFEPRIDRDEENKPIRVWLSAQSGVGIPQLFQALTERLSGEVAQHTLRLPPQEGRLRSRFYQLQAIEKEWMEEDGSVSLQVRMPIVDWRRLCKQEPALIEYVILEHHHHHH | soluble |
| MTTDYDFWLFDLDGTLVDIEPAYPRKVMGAVGDRLGVEFTDRERDALWYGFGGTRSRTLAERNVDQQEFWRLFHEEEDPIARAEATYLYDDAEQFLATLDTPVGLVTHCQQYLTEPVLDHLDITDWFETVVCCDDDIGWKPDPKPVELAMREMDVWYNGHHGVLAGDNPSDIGAAWNAGLDGVHVGRRSPTETGRCVRGDRRVASLLDLSSSQGR | not soluble |
| MVNGDGNPREVIEDLAANNPAIQNIRLRHENKDLKARLENAMEVAGRDFKRAEELEKAKQALEDQRKDLETKLKELQQDYDLAKESTSWDRQRLEKELEEKKEALELAIDQASRDYHRATALEKELEEKKKALELAIDQASQDYNRANVLEKELE | soluble |
| MGSDKIHHHHHHMESVGDVLKRQPSRFYYQDLVQKIMKDPDVAAFIQQESLTPKELNRSISKFNQYITERDKFLRGDTDYIAKGYKPILVKNHGYADVSYEETPELIAAEKEAAIKNRLKLINLPASLKKASLAQVDLDDLGRLPVFEKLLAFVEQYPAIRKGLYLYGDFGVGKSFMVAALAHDLSEKRGVSSTLLHYPSFVIDVKNAISDGNVKTLVDEIKLSEVLILDDIGAEQSTVWVRDEILQVILQYRMQENLPTFFTSNFNFEDLEKHFAKVKHGNDETWEARRVMERIRYLAEETRLEGVNRR | not soluble |
| SAAANPWDPASAPNGAGLVLGHFIASGMVNQEMLNMSKKTVSCFVNFTRLQQITNIQAEIYQKNLEIELLKLEKDTADVVHPFFLAQKCHTLQSMNNHLEAVLKEKRSLRQRLLKPMCQENLPIEAVYHRYMVHLLELAVTFIERLETHLETIRNIPHLAANLKKMNQALAKMDILVTETEELAENILKWRKQQNEVSSCIPKILAEESYLYKHDIIMPPLPFTSKVHVQTINAK | soluble |
| MNRSALDFRHFVDHLRRQGDLVDVHTEVDANLEIGAITRRVYERRAPAPLFHNIRDSLPGARVLGAPAGLRADRARAHSRLALHFGLPEHSGPRDIVAMLRAAMRAEPIAPRRLERGPVQENVWLGEQVDLTRFPVPLLHEQDGGRYFGTYGFHVVQTPDGSWDSWSVGRLMLVDRNTLAGPTIPTQHIGIIREQWRRLGKPTPWAMALGAPPAALAAAGMPLPEGVSEAGYVGALVGEPVEVVRTQTNGLWVPANTEIVLEGEISLDETALEGPMGEYHGYSFPIGKPQPLFHVHALSFRDQPILPICVAGTPPEENHTIWGTMISAQLLDVAQNAGLPVDMVWCSYEAATCWAVLSIDVQRLAALGTDAAAFAARVAETVFGSHAGHLVPKLILVGNDIDVTEIDQVVWALATRAHPLHDHFAFPQIRDFPMVPYLDAEDKARGSGGRLVINCLYPEQFAGQMRAATASFRHAYPTALRRRVEERWSDYGFGDALEHHHHHH | not soluble |
| MASMTGGQQMGRGSDYFEPQQQQQQQQQQPQGASTPKVFVGYSIYKGKAALTVEPRSPEFSPLDSGAFKLSREGMVMLQFAPAAGVRQYDWSRKQVFSLSVTEIGSIISLGTKDSCEFFHDPNKGRSDEGRVRKVLKVEPLPDGSGHFFNLSVQNKLINLDENIYIPVTKAEFAVLVSAFNFVMPYLLGWHTAVNSFKPEDASRSNNANPRSGAELEWNLEHHHHHH | soluble |
| MLFHRKIKVPDCVFKAEKRVLHVSDTPVSFYRTFDEILNLIKPDIIIHTGDLADDIKLERKPWLKKEYENALIKFKNIIRGRIVYLVPGNEDDKEIIREILGRDVILVNPGTIIEIYGRTFALGHKPEDVKGKEAEFKLYGHDPKSLFPFNGIHAIHIILFPEWKVVKIRYPSWVNYDRGYRIFRGLLEHHHHHH | not soluble |
| MGHHHHHHSHMAAVDIRDNLLGISWVDSSWIPILNSGSVLDYFSERSNPFYDRTCNNEVVKMQRLTLEHLNQMVGIEYILLHAQEPILFIIRKQQRQSPAQVIPLADYYIIAGVIYQAPDLGSVINSRVLTAVHGIQSAFDEAMSYCRYHPSKGYWWHFKDHEEQDKVRPKAKRKEEPSSIFQRQRVDALLLDLRQKFPPKFVQLKPGEKPVPVDQTKKEAEPIPETVKPEEKETTKNVQQTVSAKGPPEKRMRLQ | soluble |
| MSLAKVLYITAHPFNELVSNSMAAGKAFIETYQQQHPDDEVKHIDLFETYIPVIDKDVLTGWGKMSNGETLTDDEQMKVSRLSDILEEFLSADKYVFVTPMWNLSFPPVVKAYIDAISIAGKTFKYSAEGPQGLLTDKKVLHIQSRGGYYTEGPAADFEMGDRYLRTIMTFLGVPSYETIIIEGHNAEPHKTEEIKATSINNAEKLATTFEGGSHHHHHH | soluble |
| MSLTRAAVNPKPFVVPELKQWTGKDGNFTPGKDTRIVCTSQNPELLRIARMFADDYQQMFGQTLSVAQGKATSGDFVLSLSADKKLGEEGYAIKITDRVAISAPTPTGLYWSTRTLLQLAEQNQERSLPQGTIRDYPDYPLRGFMIDCGRKFIPMAYLQDLVKIMAYYKMNTLQVHLNDNGFKQYFEHNWDKTYAAFRLESETYPGLTARDGSYSKKEFIDFQKQAASNFVEIIPEIDVPAHSLALTHYKPEIGSKEYGMDHLDLFKPETYEFVDALFKEYLEGDNPVFVGKRVHIGTDEYSNAKKDVVEKFRAFTDHYIRFVEGFGKQAVVWGALSHAKGDTPVKSENVVMNAWYNGYADPATMIKDGYQLISIPDGLVYIVPKAGYYYDYLNEPYLYKEWTPAHIGKAVFDEKHPSILGGMFAIWNDHVGNGISVKDIHHRIFSPLQTLSVKMWTGAQTGIPYETFNEKRALLSEAPGVNQLARIGKKPELVYERSTVAPGSTSDYPEIGYNYTVSFDITGAKESEGTELFRSPNAVFYLSDPIRGEGHHHHHH | soluble |
| MGSDKIHHHHHHMSKVIITCAVTGAIHTPSMSRYLPVTPEEIIEASVGAAEAGAAIIHLHARDPVTGKPDQSPDAFGRFLPQIKARTDAVLNITSGGSPYMTIEERIQPSMRFAPEVASLNMGSMNFALFPMLARFKEFKHAWEREALEASRDLIFRNTFKDIEYALAQCAANDTRFEFECYDVGHLYNLAHFVERGLVKAPFFVQTVFGILGGIGTHPEDVSHMKRTADRLFGNDYRWSVLGAGKDQLRLAGMSASMGGNVRVGLEDSLWLGRGTLAESNAAQVRQARQIIEGLGLEIASPNEAREILQLKGIEKVKF | not soluble |
| NQVEKSLISSYEQSLNQRIDNLSYYIEQEYKSDNDSTVIKDDVSRILNDFTKSDEVREISFVDKSYEVVGSSKPYGEEVAGKQTTDLIFKRIFSTKQSYLRKYYDPKSKIRVLISAKPVMTENQEVVGAIYVVASMEDVFNQMKTINT | not soluble |
| MGSDKIHHHHHHMNIRKYIWAYVVAMALICPGVKAQEQITIGVIQYDVRDIDKSFKALHEQGFGSCELNYSEKRFTKELAEQVKAASEKHRIRVTTLVGVPGSKSTWNFRQGPATIGLVPIDERFEKLDLYRKMIDFCVQAGIPAMHSHFGFIPEDPSSAQYKDFIEVMRGLATYAKERNVLIYFETGQETPITLIRAIRDIGTGNLFINCDLANLLMYGKSNSLDAVKLFGNLIKEFHAKDGKYPDPNNPYELGHEVPIPTGDVDFPAVIAELKKQGFKGAITIECELNGTRHDYVIQTRKYLQELLDR | not soluble |
| MGSDKIHHHHHHMAGVTKLTIAGFKSIRELRDFELRNLNVLIGANGAGKSNFIGFFKLLAEMYERRLQLFVQQQGGSDTLLHFSRKLTDKIEGELNFGTDYDHYRFELVVTNDNRLIFTNEQYWLHSRGSRPGEVGLLGGNKDESDLKKLAAQQKSPLIDDILNSTRVYHFHDTGEKAKVKQPHALNDTLRLKVDGANLAAYLRMLKTEHAESYRQIVDTIRLVAPFFDDFVFRADSASKIQLEWTERGDPDTPFTAHALSDGTLRFICLGTLLLQPWELMPATILIDEPELGLHPYAINLLADLLKRASEQKQLIVSTQSVELLDRLEPEDVIVVDRKDNASTFHRLDAVQLQDWLDDYSLGDLWKQNVLGGRPA | not soluble |
| MGSDKIHHHHHHMDDTDWIGETFTSTVGWDHLETLVDIGNRMAGSGGERAAAEATRDALAEYTRDARLSEFGIQGWERGDSAVHAGGSPVATQAHECIALPRSPAGEVTGELVDVGHGLPEDFEDADCEGQIVLARSDVPDWYDRYIHRREKYYHAVEAGAAGFIYRNHVDGVLPPTGSVGTADAPIGEIPAIGVASETGARLARRYAGENVTLSVDCETPKATSQNVHAELGPDTDERLLVTSHADAHDIAEGAMDNGAGTAMVVEVARALAGREDELATRVEFVAFGAEEVGLVGSNRLAGETTLDDVTAVLNFDGVVQGRTLKCYTHGFDALTAAAEDVADRLDHPISLTPEQGPHSDHWPFVQRGVPGYHVTSETGGEGRGWGHTHADTLDKLEPRTFREQAVLLTELAVALADDSARPAHKDPAEIANALEAQNLAEGMRITGDWPFGD | not soluble |
| MANSHVNTLNPGDPFRDWLVEEVVANRIRDKKCCVNVFKYNSSHTVCRYQFKGEHFSVMAKFFAEPTGKLKAYNPYKGMMNEYRNLKKAASIINVAKPLAVRKDFNCVLVTEHIPGKSLGWYLKREEDLYGRLSAVAHMLRNLHDNTKSSYNKENEFRNFHDVLDHLKLDYGTRETFNKLLGEWWYSSLLDRDHGCMVHRDVTPSNYIFCKEKPYAIDFESSWFEAHPIRDLGVLTAELKNEFELHKGGGWKAEPYIGNFLWEYSRGEKDFYSITGILPFFMSIGLLRSARLHQGDYRNYLINEARECLGAIYRGNLEHHHHHH | not soluble |
| MGSDKIHHHHHHMVKIMQYINKSKEEFLSEIYRIVAKIRLELELTTSEITISDFEFKMDSENSKNLILMIYTPTRTDKSLLIGPGGWVVGKLREKLNGSFKENLIIRVESYIDRKKELDAIENSISHLREKGLDISSKKDALVIIQCEYDLSSIDFINEYFNPIFITFDLGTALLPHKNRNRIEQVFKDKNLKYEFLSPYSLNGEQITDAISKNPCETICNNLISEMVNYAKNKNIEIVLFNHLNKDYEFRNGIHILNFLKMFPIKLNSLIHKGRSLDCPLLIQSCKRNKITKTFKIKQIVSGVYSGLVEPTEGAEEIIKYLK | not soluble |
